Measured values from US20190233847.

What was measured:
[1] = target: cpCas9-1017 circular permutation: residues 1018-1368, (GGS)n linker, then 1-1017 (Streptococcus pyogenes) (UniProt Q99ZW2); assay: cell_activity; details: enrichment in RFP repression FACS screen, E. coli
[2] = target: cpCas9-311 circular permutation: residues 312-1368, (GGS)n linker, then 1-311 (Streptococcus pyogenes) (UniProt Q99ZW2); assay: cell_activity; details: enrichment in RFP repression FACS screen, E. coli
[3] = target: cpCas9-200 circular permutation: residues 201-1368, (GGS)n linker, then 1-200 (Streptococcus pyogenes) (UniProt Q99ZW2); assay: cell_activity; details: enrichment in RFP repression FACS screen, E. coli
[4] = target: cpCas9-182 circular permutation: residues 183-1368, (GGS)n linker, then 1-182 (Streptococcus pyogenes) (UniProt Q99ZW2); assay: cell_activity; details: enrichment in RFP repression FACS screen, E. coli
[5] = target: cpCas9-1283 circular permutation: residues 1284-1368, (GGS)n linker, then 1-1283 (Streptococcus pyogenes) (UniProt Q99ZW2); assay: cell_activity; details: enrichment in RFP repression FACS screen, E. coli
[6] = target: cpCas9-231 circular permutation: residues 232-1368, (GGS)n linker, then 1-231 (Streptococcus pyogenes) (UniProt Q99ZW2); assay: cell_activity; details: enrichment in RFP repression FACS screen, E. coli
[7] = target: cpCas9-1042 circular permutation: residues 1043-1368, (GGS)n linker, then 1-1042 (Streptococcus pyogenes) (UniProt Q99ZW2); assay: cell_activity; details: enrichment in RFP repression FACS screen, E. coli
[8] = target: cpCas9-1250 circular permutation: residues 1251-1368, (GGS)n linker, then 1-1250 (Streptococcus pyogenes) (UniProt Q99ZW2); assay: cell_activity; details: enrichment in RFP repression FACS screen, E. coli
[9] = target: cpCas9-271 circular permutation: residues 272-1368, (GGS)n linker, then 1-271 (Streptococcus pyogenes) (UniProt Q99ZW2); assay: cell_activity; details: enrichment in RFP repression FACS screen, E. coli
[10] = target: cpCas9-1011 circular permutation: residues 1012-1368, (GGS)n linker, then 1-1011 (Streptococcus pyogenes) (UniProt Q99ZW2); assay: cell_activity; details: enrichment in RFP repression FACS screen, E. coli
[11] = target: subset of circular permuted dCas9 proteins (CPs) with a TEV linker (ENLYFQ\S) between the N & C termini

Molecule	binding signal (log2 fold change) [1]	binding signal (log2 fold change) [2]	binding signal (log2 fold change) [3]	binding signal (log2 fold change) [4]	binding signal (log2 fold change) [5]	binding signal (log2 fold change) [6]	binding signal (log2 fold change) [7]	binding signal (log2 fold change) [8]	binding signal (log2 fold change) [9]	binding signal (log2 fold change) [10]	western blot of linker cleavage [11]
RFP-targeting guide RNA ; RFP reporter target	17	15.6	17.7	17.1	18	17.2	17.8	18.1	16.7	17.3	
Tobacco Etch Virus (TEV) protease (protein) GESLFKGPRDYNPISSTICHLTNESDGHTTSLYGIGFGPFIITNKHLFRRNNGTLLVQSLHGVFKVKNTTTLQQHLIDGRDMIIIRMPKDFPPFPQKLKFREPQREERICLVTTNFQTKSMSSMVSDTSCTFPSSDGIFWKHWIQTKDGQCGSPLVSTRDGFIVGIHSASNFTNTNNYFTSVPKNFMELLTNQEAQQWVSGWRLNADSVLWGGHKVFMSKPEEPFQPVKEATQLMNELVYSQ											the CPs were cleaved at the correct location when an active TEV protease was present in the cell
